Experimental data as given in article PMC2871033 (Structure (London, England : 1993), 2010).

T1: Cwf8-Myc13 (S. pombe Prp19) (S. pombe, UniProt O14011 1-488)
T1 sequence (looked up): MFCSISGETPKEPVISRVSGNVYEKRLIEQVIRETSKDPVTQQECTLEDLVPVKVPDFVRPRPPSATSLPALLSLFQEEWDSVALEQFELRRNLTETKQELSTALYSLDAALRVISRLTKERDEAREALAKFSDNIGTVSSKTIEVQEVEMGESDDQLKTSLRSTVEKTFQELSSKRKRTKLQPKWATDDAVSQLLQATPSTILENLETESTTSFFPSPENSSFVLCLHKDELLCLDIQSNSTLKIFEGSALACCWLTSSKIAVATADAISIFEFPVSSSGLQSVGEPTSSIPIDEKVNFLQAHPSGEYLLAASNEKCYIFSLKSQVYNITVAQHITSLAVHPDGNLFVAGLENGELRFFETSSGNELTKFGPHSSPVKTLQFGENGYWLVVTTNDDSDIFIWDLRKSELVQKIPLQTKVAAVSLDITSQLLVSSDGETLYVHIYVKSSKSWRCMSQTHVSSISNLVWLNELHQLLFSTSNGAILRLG

T2: Prp19, separately purified (analytical ultracentrifugation) (S. cerevisiae), P32523
T2 chain: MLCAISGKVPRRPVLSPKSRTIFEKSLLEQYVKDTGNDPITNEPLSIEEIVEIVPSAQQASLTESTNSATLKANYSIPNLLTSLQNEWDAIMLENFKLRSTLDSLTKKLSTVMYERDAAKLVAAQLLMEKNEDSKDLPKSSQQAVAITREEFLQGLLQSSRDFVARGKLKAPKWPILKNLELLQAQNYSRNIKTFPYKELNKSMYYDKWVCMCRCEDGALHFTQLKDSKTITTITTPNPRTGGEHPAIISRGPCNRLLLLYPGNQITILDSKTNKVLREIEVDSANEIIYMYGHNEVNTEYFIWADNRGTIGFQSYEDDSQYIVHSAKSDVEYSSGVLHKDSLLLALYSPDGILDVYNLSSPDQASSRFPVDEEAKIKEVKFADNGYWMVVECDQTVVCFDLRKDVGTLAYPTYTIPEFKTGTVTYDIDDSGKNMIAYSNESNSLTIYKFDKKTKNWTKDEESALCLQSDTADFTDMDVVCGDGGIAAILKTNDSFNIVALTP


How the values were obtained:
[1] = biological target: T1, Cwf8-Myc13 (S. pombe Prp19); assay: co-IP
[2] = biological target: T2, Prp19, separately purified (analytical …); assay: AUC; settings: remark: other sources report otherwise

Row | Binder | stoichiometry N [1] | stoichiometry N [2]
1 | Cwf2-Myc13 (S. pombe Cwc2) (natural protein, UniProt P87126 1-388, looked up) MSENGLEQEVTVEEKNNDVTEKILVEGEKSKEYEETPRKVKIVKRKKQPARKQIETRPEYEMEPEQPGQVYNLWYNKWSGGMRQDPLKSQVKSETRCVISRDSGYTKADKNPGSFFCLYFARGMCSEGSKCEYLHRLPKDTDFFNANVDCFGREKHADYRDDMGGVGSFLRQNYTLYVGGITPTDDIEEIVSRHFAEWGDIERIRVLNSRGIAFITYLNEANAQFAKEAMAHQSLDHDECLNVRWATTDPNPASQARNQRRLEERAANAVKKLLPKQFLLDLEETKNGKSGNRKRKLELEFGLKGYVPSDDLLYADGANSVHNQLAANEFPNKSQSEEGSNDDHKSVTTTESQNKFVNSQILSDLQVAKQAVHTNQSALVSYYDSDED | 2 copies of Cwf2 per four copies of Cwf8 | 
2 | Prp19, separately purified (analytical ultracentrifugation), P32523 1-503 (natural protein) MLCAISGKVPRRPVLSPKSRTIFEKSLLEQYVKDTGNDPITNEPLSIEEIVEIVPSAQQASLTESTNSATLKANYSIPNLLTSLQNEWDAIMLENFKLRSTLDSLTKKLSTVMYERDAAKLVAAQLLMEKNEDSKDLPKSSQQAVAITREEFLQGLLQSSRDFVARGKLKAPKWPILKNLELLQAQNYSRNIKTFPYKELNKSMYYDKWVCMCRCEDGALHFTQLKDSKTITTITTPNPRTGGEHPAIISRGPCNRLLLLYPGNQITILDSKTNKVLREIEVDSANEIIYMYGHNEVNTEYFIWADNRGTIGFQSYEDDSQYIVHSAKSDVEYSSGVLHKDSLLLALYSPDGILDVYNLSSPDQASSRFPVDEEAKIKEVKFADNGYWMVVECDQTVVCFDLRKDVGTLAYPTYTIPEFKTGTVTYDIDDSGKNMIAYSNESNSLTIYKFDKKTKNWTKDEESALCLQSDTADFTDMDVVCGDGGIAAILKTNDSFNIVALTP |  | 4
